Results as given in article doi:10.1101/2021.02.16.431021 (bioRxiv, 2021).

Biological target: the molecule itself
Assay: crystal structure

B1: SARS-CoV main protease (M^pro) (enzyme)
chain: SGFRKMAFPSGKVEGCMVQVTCGTTTLNGLWLDDTVYCPRHVICTAEDMLNPNYEDLLIRKSNHSFLVQAGNVQLRVIGHSMQNCLLRLKVDTSNPKTPKYKFVRIQPGQTFSVLACYNGSPSGVYQCAMRPNHTIKGSFLNGSCGSVGFNIDYDCVSFCYMHHMELPTGVHAGTDLEGKFYGPFVDRQTAQAAGTDTTITLNVLAWLYAAVINGDRWFLNRFTTTLNDFNLVAMKYNYEPLTQDHVDILGPLSAQTGIAVLDMCAALKELLQNGMNGRTILGSTILEDEFTPFDVVRQCSGVTFQ
binding result: binds
